Publication PMC11272775, “Epigenetic memory is governed by an effector recruitment specificity toggle in Heterochromatin Protein 1” (Nature Communications, 2024)

Test system: Swi6-Y (Swi6-T278Y) (Schizosaccharomyces pombe)
Test: EMSA
Conditions: 20 mM Hepes pH 7.5, 4 mM Tris, 80 mM KCl, 0.1% Igepal CA-630, 0.2 mM EDTA, 2 mM DTT, 10% glycerol, 10 nM mononucleosome, 30 °C 45 min, 6% acrylamide 0.5x TBE …

Substance	binding signal (fold weaker than H3K9me3) (H3K9me0 histone, unmodified H3 (H3K9me0))	K half (H3K9me3 histone, histone H3K9me3 (DNA unmodified)) [nM]
H3K9me0 mononucleosome	2.3	
H3K9me3 mononucleosome		39
